# In patent publication US20030040042A1, “Recombinant fibroblast growth factors” (published 2003):
# Experiments:
# [1] = target: FGF receptor on bovine adrenal cortex capillary endothelial (ACE) cells (bovine) (UniProt P12820)
# [2] = target: FGF receptor on Balb/c 3T3 cells; assay: competition with [125I]-bFGF on Balb/c 3T3 cells, no heparin
# [3] = target: FGF receptor on Balb/c 3T3 cells; assay: competition with [125I]-bFGF on Balb/c 3T3 cells, 1 ug/ml heparin
# [4] = target: FGF receptor on Balb/c 3T3 cells
# KR128, 129ST, sequence (P09038 134-288 K261S/R262T limits assumed): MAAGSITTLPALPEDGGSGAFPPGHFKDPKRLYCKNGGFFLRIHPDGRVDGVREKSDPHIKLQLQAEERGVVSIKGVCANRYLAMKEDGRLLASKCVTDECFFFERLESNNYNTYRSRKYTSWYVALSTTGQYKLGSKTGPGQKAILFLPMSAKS
Substance,"ACE Mito., no heparin (ED50 wild type / ED50 analog x 100%) (% of wild type) [1]",FGF-Rc Comp. (ED50 analog / ED50 wild type FGF) [2],FGF-Rc Comp. (ED50 analog / ED50 wild type FGF) [3],"3T3 Mito., 1 ug/ml heparin (ED50 wild type / ED50 analog x 100%) (% of wild type) [4]","3T3 Mito., no heparin (ED50 wild type / ED50 analog x 100%) (% of wild type) [4]","ACE Mito., 1 ug/ml heparin (ED50 wild type / ED50 analog x 100%) (% of wild type) [1]"
bFGF-D28K (from UniProt P09038-2) (ligand),–,1,1.3,–,–,–
bFGF-K55M (from UniProt P09038-2) (ligand),–,0.4,0.4,–,–,–
bFGF-C78S (from UniProt P09038-2) (ligand),–,0.3,0.25,–,–,–
bFGF-R106L (from UniProt P09038-2) (ligand),–,0.3,0.13,200,20,–
bFGF-E105S (from UniProt P09038-2) (ligand),–,50,40,100,12.6,–
bFGF-E100A (from UniProt P09038-2) (ligand),–,0.8,1,–,–,–
bFGF-R48A (from UniProt P09038) (ligand),8.9,0.32,0.3,–,–,84.2
"KR128, 129ST (from UniProt P09038-2) (ligand)",–,2,0.8,–,185,–
R106T (from UniProt P09038-2) (ligand),–,–,–,250,210,–

# Continued, values first:
"ACE Mito., no heparin (ED50 wild type / ED50 analog x 100%) (% of wild type) [1]",FGF-Rc Comp. (ED50 analog / ED50 wild type FGF) [2],FGF-Rc Comp. (ED50 analog / ED50 wild type FGF) [3],"3T3 Mito., 1 ug/ml heparin (ED50 wild type / ED50 analog x 100%) (% of wild type) [4]","3T3 Mito., no heparin (ED50 wild type / ED50 analog x 100%) (% of wild type) [4]","ACE Mito., 1 ug/ml heparin (ED50 wild type / ED50 analog x 100%) (% of wild type) [1]",Substance
1.8,0.5,0.4,–,–,–,bFGF-R118L (from UniProt P09038) (ligand)
–,0.5,0.4,–,–,–,bFGF-V52K (from UniProt P09038-2) (ligand)
–,1,0.8,100,100,–,bFGF-R31S (from UniProt P09038-2) (ligand)
–,0.3,0.2,–,–,–,bFGF-K27M (from UniProt P09038-2) (ligand)
–,–,–,170,100,–,K95T (from UniProt P09038-2) (ligand)
–,0.5,–,25,5,–,human acidic FGF (from UniProt P05230) (ligand)
–,0.04,0.03,280,150,–,bFGF-D99A (from UniProt P09038-2) (ligand)
–,0.3,0.8,–,–,–,bFGF-C96S (from UniProt P09038-2) (ligand)
–,0.4,0.4,–,315,–,bFGF-H59N (from UniProt P09038-2) (ligand)
